Experimental data taken from patent publication US20250368978A1, “SQUALENE HOPENE CYCLASE VARIANTS FOR PRODUCING SCLAREOLIDE” (INTERNATIONAL FLAVORS & FRAGRANCES INC., priority 2022, published 2025).
Changes are numbered by the printed parent chain. Names may count otherwise.

B1: M184T: GmSHC mutant M184T from site saturation mutagenesis (protein)
chain: MSPADISTKSSSFQRLDNMLPEAVSSACDWLIDQQKPDGHWVGPVESNACMEAQWCLALWFLGQEDHPLRPRLAQALLEMQREDGSWGIYVGADHGDINTTVEAYAALRSMGYAADMPIMAKSAAWIQQKGGLRNVRVFTRYWLALIGEWPWDKTPNLPPEIIWLPDNFIFSIYNFAQWARATTMPLTILSARRPSRPLLPENRLDGLFPEGRENFDYELPVKGEEDLWGRFFRAADKGLHSLQSFPVRRFVPREAAIRHVIEWIIRHQDADGGWGGIQPPWIYGLMALSVEGYPLHHPVLAKAMDALNDPGWRRDKGDASWIQATNSPVWDTMLAVLALHDAGAEDRYSPQMDKAIGWLLDRQVRVKGDWSIKLPDTEPGGWAFEYANDKYPDTDDTAVALIALAGCRHRPEWRERDIEGAISRGVNWLLAMQSSSGGWGAFDKDNNRSILTKIPFCDFGEALDPPSVDVTAHVLEAFGLLGISRNHPSVQKALAYIRSEQERNGAWFGRWGVNYVYGTGAVLPALAAIGEDMTQPYIVRACDWLMSVQQENGGWGESCASYMDINAVGHGVATASQTAWALIGLLAAKRPKDREAIARGCQFLIERQEDGSWTEEEYTGTGFPGYGVGQAIKLDDPSLPDRLLQGAELSRAFMLRYDLYRQYFPVMALSRARRMMKEDASAAA
modifications: Gluconobacter morbifer
notes: GmSHC mutant M184T from site saturation mutagenesis
B2: Y284W: GmSHC variant Y284W from site saturation mutagenesis (protein)
chain: B1 chain with T184M, Y284W
B3: A683E: GmSHC mutation A683E in the C-terminal domain (protein)
chain: B1 chain with T184M, A683E
modifications: Gluconobacter morbifer
notes: GmSHC mutation A683E in the C-terminal domain

Assay: Effect of single mutations of GmSHC on activity (site saturation mutagenesis / summary of variants)
Format: biochemical, Gluconobacter morbifer
Conditions: single position in GmSHC, SEQ ID NO: 2 numbering
Text: Three different approaches were taken to generate SHC variants: rational mutagenesis (site-directed mutagenesis), semi-rational mutagenesis (via site-saturation library), and random mutagenesis (error prone PCR). Variants were expressed in a heterologous system and screened by GC.
To improve the conversion of HFA to sclareolide, GmSHC was mutated at one or more of the residues at position 45, 54, 178, 184, 222, 278, 284, 326, 348, 574 and 683 of SEQ ID NO: 2. Silent mutations at positions 249, 348, and 574 identified in an error prone library, were also introduced in the GmSHC of SEQ ID NO: 2.

Molecule	effect of mutation on activity
B1	increase in activity
B2	increases activity
B3	positive effect on activity
